Patent US20240358755A1 (IMMATICS BIOTECHNOLOGIES, published 2024)

molecular target: T1, HLA-B*08:01 (human); assay: allele assigned to HLA ligand eluted from tissue (IP, LC-MS)
T1 construct: Peptide-receptive MHC class I monomer in the UV-ligand exchange assay

Binding result, binds:
TAMTTLMAF
ILRTVLPSL
TILAKQNVL

molecular target: T1, HLA-B*08:01; assay: UV peptide exchange, anti-b2m ELISA; exchange yield grade

Binding result, binds:
NQKGLISL
YAFRNQTL
VANDRLSFL

molecular target: T2, HLA-A*24:02 (human); assay: as above
T2 construct: Peptide-receptive MHC class I monomer in the UV-ligand exchange assay

Binding result, binds:
IYIPTNSIYKF
SHSLPAFTL
LYIFTTRPF
AYIPFPPLI
SFSLLLPYL
KYPTIICGF
IFDLSDPRF
LYQTTIELF
GRFWLPFNF
VFIPSVINL
LHLNPGLSF
VQSGVPSRF
IYFHLNNWTI
